Measured values taken from doi:10.1101/2022.01.13.476208.
Blank lines part the entries; values can stand above or below the substance they belong to.

Key:
[1] = target: Wild-type GPIbα, residues 1-290, with Avi-tag, biotinylated; test: BLI
[2] = target: A1 short (human) (UniProt P04275); test: ITC

Substance: A1+C (from UniProt P04275 1264-1486) (domain or fragment)
- fold lower affinity than A1 short [1]: 2.5 fold

Substance: A1+N (from UniProt P04275 1238-1469) (domain or fragment)
- fold lower affinity than A1 short [1]: 4.3 fold

Substance: A1+N+C (from UniProt P04275 1238-1486) (domain or fragment)
- fold lower affinity than A1 short [1]: 10 fold

Substance: A1+OGly+N (from UniProt P04275 1238-1469) (domain or fragment)
- fold lower affinity than A1+N [1]: 10 fold
- fold lower affinity than A1 without linkers [1]: 51 fold

Substance: A1+OGly+N+C (from UniProt P04275 1238-1489) (domain or fragment)
- Kd [1]: 9.2 µM
- fold increase in affinity in 10 mM against 150 mM NaCl [1]: 20 fold
- fold increase in kon in 10 mM against 150 mM NaCl [1]: 7 fold
- fold lower affinity than with the O-glycosylated N-linker alone [1]: 1.2 fold

Further lines, results first:

- Kd [1]: 0.18 µM
Substance: A1 short (from UniProt P04275 1264-1469) (domain or fragment)

- fold lower affinity than A1+C [1]: 2 fold
- fold lower affinity than A1 without linkers [1]: 6 fold
Substance: A1+OGly+C (from UniProt P04275 1264-1489) (domain or fragment)

- fold higher affinity than A1+OGly+N+C [2]: 39 fold
Substance: Wild-type GPIbα, residues 1-290, without Avi-tag (domain or fragment)
